Data as given in the RNAGym collection of RNA variant scans (doi:10.7554/elife.80360).

B1: Hairpin Ribozyme (parent)
chain: GUCCUCUUUCACGUGCGCGUGAAAGAGAGAAGUGAACCAGAGAAACACACGUUGUGGUAUAUUACCUGGUA

Variants of: B1
Test: self-cleavage, relative activity (ratio to wild type); higher = more cleavage; co-transcriptional

| Variant | self-cleavage |
| --- | --- |
| A11U A30C | 0.236 |
| A11G A59U | 0.199 |
| C12U G13A | 0.72 |
| A11U U58C | 0.822 |
| C12G U14G | 0.684 |
| C12G U14A | 0.629 |
| C12A G56A | 0.182 |
| A11U A61C | 0.137 |
| C12A A39G | 0.285 |
| C12A A39U | 0.425 |
| C12A C50A | 0.231 |
| C12A C50G | 0.389 |
| C12U A47C | 0.221 |
| A11C G34U | 1.45 |
| A11G C66A | 0.29 |
| A11U U67A | 0.117 |
| A11U U67C | 0.223 |
| C12G G68U | 0.193 |
| A11C U62G | 0.199 |
| C12U G21C | 0.651 |
| C12U G21U | 0.672 |
| C12G A39C | 0.436 |
| A11G C50A | 0.196 |
| A11G C50G | 0.346 |

| Variant | self-cleavage |
| --- | --- |
| A11C C65G | 0.331 |
| A11C G57C | 0.145 |
| A11C G56U | 0.0715 |
| A11U U60C | 1.18 |
| A11G A71C | 1.35 |
| A11G A71U | 0.749 |
| C12G A26C | 0.555 |
| C12G A26U | 0.696 |
| C12A C37U | 0.578 |
| C12U A22C | 0.831 |
| A11U C65G | 0.308 |
| A11U C65U | 0.25 |
| C12U U70C | 0.96 |
| A11G U55A | 0.191 |
| A11C G19U | 0.697 |
| A11U A23C | 0.652 |
| A11U A23G | 0.402 |
| A11U A45G | 0 |
| A11U A45C | 0.241 |
| C12G A35G | 0.874 |
| C12U A49G | 0.564 |
| A11U C18A | 0.826 |
| A11G U14G | 0.846 |
| A11U G68A | 0.316 |

| Variant | self-cleavage |
| --- | --- |
| A11C G13A | 0.661 |
| C12G G15U | 0.906 |
| C12G G15C | 0.756 |
| A11G A36G | 0.972 |
| A11C U63A | 0.201 |
| C12A A23G | 0.677 |
| C12A A23U | 0.671 |
| C12G U33G | 0.0897 |
| C12G U33C | 0.246 |
| A11C U67C | 0.225 |
| C12G G21U | 0.663 |
| C12U U62A | 0.148 |
| C12A U20C | 0.919 |
| C12A U20A | 0.865 |
| C12G G17A | 0.913 |
| C12A U55G | 0.406 |
| C12A A35C | 0.978 |
| C12A A35G | 0.914 |
| A11G C48G | 0.109 |
| A11G C48A | 0.0849 |
| A11U U70A | 0.914 |
| A11U U70G | 0.656 |
| A11C U70C | 1.23 |
| A11U G32U | 0.0846 |

| Variant | self-cleavage |
| --- | --- |
| C12A G13C | 0.927 |
| C12A G13A | 0.635 |
| A11C G69A | 0.381 |
| A11C G69U | 0.299 |
| C12G G29U | 0.234 |
| C12G G29C | 0.13 |
| A11G C12A | 0.735 |
| A11G C12U | 0.778 |
| C12G U55A | 0.25 |
| C12U A41C | 0.886 |
| C12U G19C | 0.955 |
| C12U A43C | 0.105 |
| A11G A41C | 1.06 |
| C12U G25U | 0.52 |
| C12U G25C | 0.511 |
| A11C G21C | 0.732 |
| A11C G21A | 0.605 |
| C12G G25U | 0.472 |
| C12U C48G | 0.185 |
| C12G A47G | 0.076 |
| C12G A47U | 0.183 |
| A11G G29U | 0.142 |
| C12G C18U | 0.889 |
| C12G C18G | 0.727 |

| Variant | self-cleavage |
| --- | --- |
| C12G C18A | 0.926 |
| A11G A45U | 0.159 |
| C12G A49G | 0.462 |
| A11C G68C | 0.136 |
| A11C G68A | 0.248 |
| A11C U33A | 0.222 |
| A11C U33G | 0.0703 |
| A11C U33C | 0.252 |
| A11U C66U | 0.318 |
| C12A C38G | 0.187 |
| C12A C38U | 0.482 |
| A11C U53A | 0.919 |
| C12A G32U | 0.114 |
| C12A G32A | 0.178 |
| C12A G68A | 0.262 |
| C12A G68U | 0.251 |
| C12A G68C | 0.241 |
| C12A G21A | 0.767 |
| A11G C16G | 0.592 |
| A11C C50U | 0.247 |
| C12A U58G | 0.708 |
| C12G U60G | 0.452 |
| A11G A35U | 0.764 |
| A11G A35C | 0.996 |

| Variant | self-cleavage |
| --- | --- |
| C12U G34C | 1.14 |
| C12U G34A | 1.19 |
| A11C U14C | 0.68 |
| A11G U52A | 0.857 |
| A11U G54A | 0.538 |
| A11G | 0.883 |
| A11U | 0.831 |
| C12A G34U | 1.31 |
| C12G A59G | 0.18 |
| C12A A30C | 0.159 |
| C12U A64C | 0.148 |
| A11U G69U | 0.26 |
| A11U G69C | 0.229 |
| C12A A36U | 0.435 |
| A11G C46U | 0.203 |
| C12A A43U | 0.131 |
| A11C G15C | 0.752 |
| A11C G15A | 0.819 |
| A11C G17A | 0.759 |
| A11U G17U | 0.562 |
| A11U G17A | 0.751 |
| C12A A61C | 0.239 |
| C12A A61U | 0.169 |
| A11U G27U | 0.394 |

| Variant | self-cleavage |
| --- | --- |
| A11G U67G | 0.354 |
| A11G U67A | 0.243 |
| C12A C46U | 0.119 |
| C12A C46A | 0.202 |
| C12U G32C | 0.134 |
| C12G C16U | 0.812 |
| C12G A22G | 0.739 |
| C12G A22U | 0.686 |
| C12G U53C | 0.919 |
| C12G U53G | 0.562 |
| C12G U53A | 0.911 |
| C12U C50G | 0.231 |
| C12G C66U | 0.369 |
| C12G C66G | 0.26 |
| A11U C12U | 0.694 |
| A11U C12A | 0.763 |
| A11U A24U | 0.638 |
| A11G U33C | 0.0978 |
| C12U U33C | 0.187 |
| C12A G42C | 0.272 |
| C12A G42U | 0.301 |
| A11U C37U | 0.524 |
| A11U C37G | 0.369 |
